Square brackets hold non-standard residues; d marks the D form. Ends that are not written are not given here. dPhe(4-Cl) = N[C@H](Cc1ccc(Cl)cc1)C(=O)O; Aib = CC(C)(N)C(=O)O

From US6608174B1, “Radiolabeled vasoactive intestinal peptide analogs for diagnosis and radiotherapy” (Dabur Research Foundation, priority 2000, dated 2003) come the findings set out here.

One experiment relates to VIP receptors. Kind of experiment: Displacement assay using 125I labeled VIP on human tumor cell lines. It is filed as binding. Particulars: for IC50: inhibition of 125I labeled VIP binding. How it is done:
Peptides of the invention were assayed for biological activity in homogeneous competition binding assays using ^125I labeled VIP peptide (SEQ ID NO:1) and in heterogeneous displacement assays using either ^125I labeled VIP (10-28) fragment (Tyr-Thr-Arg-Leu-Arg-Lys-Gln-Met-Ala-Val-Lys-Lys-Tyr-Leu-Asn-Ser-Ile-Leu-Asn-NH2) (SEQ ID NO: 12) or ^125I labeled VIP (SEQ ID NO:1). The assays were performed on a variety of human tumor cell lines.
In the practice of these methods, the peptide was radioiodinated using the iodogen method. Briefly, 5 μg of the peptide in 10 μl of 50 mM PBS (pH 7.5), an appropriate amount of the radioisotope and 50 μg-100 μg iodogen were incubated at room temperature for 15-30 min with occasional mixing. Radioiodinated peptide was purified from unincorporated radioactive iodine by purification on a Sep Pak C18 cartridge, essentially following the same procedure as described for technetium labeling.
Displacement assays were performed at 4-8° C. Briefly, 50,000 cells were plated per well of a 24 well plate and allowed to adhere overnight. Before the assay, the cells were washed twice with ice cold Binding buffer (25 mM HEPES, 10 mM […] MgCl2 and 1% BSA in RPMI 1640 medium). The cells were incubated for 2-3hrs with an appropriate concentration (0.1-10 nM) of ^125I labeled VIP (SEQ ID NO:1) in the presence and absence of the cold ligand (SEQ ID NO: 2) (1 nM-10 μM). The non specific binding was ascertained using 10 μM of VIP. After incubation, the cells were washed thrice with the Binding buffer to remove the unbound peptide. The cells were lysed and counts were measured in a Gamma counter. From a comparison of the extent of binding in the presence or absence of the unlabeled peptide, a concentration was determined corresponding to inhibition of ^125I labeled VIP binding by 50%. Different tumor cell lines were assayed using the above described displacement assay: HT29 (human colorectal adenocarcinoma); PTC (human primary tumor cells adenocarcinoma); KB (human squamous cell carcinoma); 4451 (human squamous cell carcinoma); L132 (human lung carcinoma); A549 (human lung carcinoma); HBL100 (human breast carcinoma) and PA1 (human ovarian carcinoma). Cells were grown in RPMI 1640 supplemented with 10% fetal calf serum, glutamine and antibiotics using standard cell culture techniques (see Animal Cell Culture: A Practical Approach, Freshney, ed, IRL press: Oxford, UK, 1992).

Experiment [1] addresses high affinity (nM range), low surface expression receptor on human tumor cells (VIP receptor) (human). Kind of experiment: maximal binding, 125I-SEQ ID NO:2 on HT29 cells.
The target in experiment [2] is low affinity (µM range), high surface expression receptor on human tumor cells (VIP receptor) (human). Kind of experiment: maximal binding, 125I-SEQ ID NO:2 on HT29 cells.
The target of experiment [3] is VIP receptors on human tumor cell lines (human). As to the kind of experiment: displacement of 125I labeled VIP on KB cells.
Experiment [4] shares this target. Kind of experiment: displacement of 125I labeled VIP on 4451 cells.
Experiment [5] addresses high affinity (nM range), low surface expression receptor on human tumor cells (VIP receptor) (human). As to the kind of experiment: maximal binding, 125I-SEQ ID NO:2 on KB cells.
For experiment [6], the target named is low affinity (µM range), high surface expression receptor on human tumor cells (VIP receptor) (human). As to the kind of experiment: maximal binding, 125I-SEQ ID NO:2 on KB cells.
The target in experiment [7] is high affinity (nM range), low surface expression receptor on human tumor cells (VIP receptor) (human). As to the kind of experiment: homologous radioligand competition, 125I-SEQ ID NO:2 on PTC cells. On the technique in general: Loss of bound radioactivity is the signal in a displacement assay; it reports binding, not function.
Experiment [8] has as its target low affinity (µM range), high surface expression receptor on human tumor cells (VIP receptor) (human). Described as above.
For experiment [9], the target named is VIP receptors on human tumor cell lines (human). Kind of experiment: displacement of 125I labeled VIP on HT29 cells.
In experiment [10] the target is high affinity (nM range), low surface expression receptor on human tumor cells (VIP receptor) (human). As to the kind of experiment: maximal binding, 125I-SEQ ID NO:2 on PTC cells.
Experiment [11] concerns the target low affinity (µM range), high surface expression receptor on human tumor cells (VIP receptor) (human). Kind of experiment: maximal binding, 125I-SEQ ID NO:2 on PTC cells.
Experiment [12] has as its target VIP receptors on human tumor cell lines (human). Kind of experiment: displacement of 125I labeled VIP on HBL 100 cells.
Experiment [13] concerns the target high affinity (nM range), low surface expression receptor on human tumor cells (VIP receptor) (human). As to the kind of experiment: homologous radioligand competition, 125I-SEQ ID NO:2 on PA1 cells.
For experiment [14], the target named is low affinity (µM range), high surface expression receptor on human tumor cells (VIP receptor) (human). The description is as above.
In experiment [15] the target is high affinity (nM range), low surface expression receptor on human tumor cells (VIP receptor) (human). As to the kind of experiment: maximal binding, 125I-SEQ ID NO:2 on A549 cells.
Experiment [16] has as its target low affinity (µM range), high surface expression receptor on human tumor cells (VIP receptor) (human). Kind of experiment: maximal binding, 125I-SEQ ID NO:2 on A549 cells.
Experiment [17] has as its target VIP receptors on human tumor cell lines (human). Kind of experiment: displacement of 125I labeled VIP (10-28) fragment on PA1 cells.
Experiment [18] shares this target. Kind of experiment: displacement of 125I labeled VIP (10-28) fragment on A549 cells.
Experiment [19] has the same target. Kind of experiment: displacement of 125I labeled VIP on A549 cells.
Experiment [20] has the same target. As to the kind of experiment: displacement of 125I labeled VIP (10-28) fragment on HBL 100 cells.
Experiment [21] has the same target. Kind of experiment: displacement of 125I labeled VIP (10-28) fragment on 4451 cells.
Experiment [22] deals with high affinity (nM range), low surface expression receptor on human tumor cells (VIP receptor) (human). Kind of experiment: maximal binding, 125I-SEQ ID NO:2 on 4451 cells.
Experiment [23] concerns the target low affinity (µM range), high surface expression receptor on human tumor cells (VIP receptor) (human). As to the kind of experiment: maximal binding, 125I-SEQ ID NO:2 on 4451 cells.

“His-Ser-Asp-Aib-Val-4-Cl-D-Phe-Thr-Asp-Asn-Tyr-Thr-Arg-Leu-Arg-Lys-Gln-Leu-Ala-Val-Lys-Lys-Tyr-Leu-Asn-Ser-Ile-Leu-Asn-NH2 (HSD[Aib]V[dPhe(4-Cl)]TDNYTRLRKQLAVKKYLNSILN-NH2; N-terminus assumed; SMILES CC[C@H](C)[C@H](NC(=O)[C@H](CO)NC(=O)[C@H](CC(N)=O)NC(=O)[C@H](CC(C)C)NC(=O)[C@H](Cc1ccc(O)cc1)NC(=O)[C@H](CCCCN)NC(=O)[C@H](CCCCN)NC(=O)[C@@H](NC(=O)[C@H](C)NC(=O)[C@H](CC(C)C)NC(=O)[C@H](CCC(N)=O)NC(=O)[C@H](CCCCN)NC(=O)[C@H](CCCNC(=N)N)NC(=O)[C@H](CC(C)C)NC(=O)[C@H](CCCNC(=N)N)NC(=O)[C@@H](NC(=O)[C@H](Cc1ccc(O)cc1)NC(=O)[C@H](CC(N)=O)NC(=O)[C@H](CC(=O)O)NC(=O)[C@@H](NC(=O)[C@@H](Cc1ccc(Cl)cc1)NC(=O)[C@@H](NC(=O)C(C)(C)NC(=O)[C@H](CC(=O)O)NC(=O)[C@H](CO)NC(=O)[C@@H](N)Cc1c[nH]cn1)C(C)C)[C@@H](C)O)[C@@H](C)O)C(C)C)C(=O)N[C@@H](CC(C)C)C(=O)N[C@@H](CC(N)=O)C(N)=O) [SEQ ID NO:2, VIP receptor antagonist, preferred peptide (Xxx = Aib)]”: the IC50 in the experiment on VIP receptors (4451 cells) was determined as 7.1 nM; with VIP receptors (A549 cells), 4.3 nM; in the experiment with VIP receptors (HBL 100 cells) it was 5.41 nM; in the experiment with VIP receptors (HT29 cells), 2.78 nM; in the experiment with VIP receptors (KB cells) it was 6.2 nM; with VIP receptors (L132 cells) it was 6.8 nM. The IC50 with VIP receptors (PA1 cells) amounted to 7.6 nM; with VIP receptors (PTC cells), 2.53 nM. For the same molecule, the “displacement of binding of radiolabelled VIP to the cell lines” value in the experiment on VIP receptors (all cell lines of Table IV) is recorded as “significantly displace”.
Take HSD[Aib]V[dPhe(4-Cl)]TDNYTRLRKQLAVKKYLNSILN-NH2 (also: 125I-labelled form (iodogen) used as tracer): the Bmax1 in [1] was 367 pM; in experiment [5] it was 602 pM; in experiment [10] it was 830 pM; in experiment [15] it was 540 pM; in experiment [22] it was 579 pM. Besides, the Bmax2 came to 67.2 nM in experiment [2]; 42.9 nM in experiment [6]; 96.6 nM in [11]; 48.3 nM in experiment [16]; 51 nM in [23]. Further, the half-maximal inhibitory concentration (IC50) in experiment [3] was determined as 6.2 nM; in experiment [4], 7.1 nM; in [9], 2.78 nM; in experiment [12], 5.41 nM; in experiment [17] it was 0.31 nM; in [18], 0.275 nM. Besides, the IC50 in experiment [19] is 4.3 nM; in experiment [20], 0.236 nM; in experiment [21], 0.383 nM. Further, the Kd stood at 1.77 nM in experiment [7], 1180 nM in experiment [8], 5.6 nM in experiment [13] and 1890 nM in [14].

As a reminder, the IC50 is the concentration that inhibits the measured activity by half. Higher therefore signals weaker potency in that assay. The term Kd denotes a measure of binding affinity in units of concentration.
